The source of these data is patent US20060240110A1 (published 2006).

By Kd is commonly meant a measure of binding affinity in units of concentration. A high value points to lower affinity.

Data set [1] deals with the molecule itself. Put plainly: circular dichroism, concentration dependence of MRE222 in PBS fitted for dimerization (coiled-coil self-association). For orientation: Circular dichroism is the unequal absorption of left and right circularly polarised light.
Data set [2] deals with T1, streptavidin (SA chip surface) (UniProt P22629 37-163, limits assumed).
T1 construct: Commercial chip coating; the construct is not described; also called streptavidin-coated chip
T1 sequence (P22629 37-163 limits assumed): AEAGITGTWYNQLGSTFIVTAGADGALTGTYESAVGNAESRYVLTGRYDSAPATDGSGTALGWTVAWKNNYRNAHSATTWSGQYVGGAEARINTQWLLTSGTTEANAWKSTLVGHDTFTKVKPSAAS
Put plainly: SPR, Biacore 3000, streptavidin-coated chip. (SPR reads the build-up and loss of mass on a sensor chip optically.)

B1: PF4ZIP (peptide)
peptide: CGGRMKQLEDKVKKLLKKNYHLENEVARLKKLVG
notes: The entry is the single chain; the Kd is for its self-association into a coiled-coil dimer; also called PF4ZIP peptide
As for B1, in data set [1], the Kd stood at 3.48 µM. In addition, the binding result in data set [2] is given as “no binding”.
